The values that follow are results of earlier work, collected in PMC3236687.

Usually Kd stands for the equilibrium constant for the complex coming apart.

Series [1] has as its target endothelin receptors (IMCD cells) (Rattus norvegicus) (UniProt P26684). Nature of the series: radioligand.
For series [2], the target named is endothelin receptor (renal papillary membranes) (Sus scrofa) (UniProt P35463). As to the kind of experiment: radioligand.
Chain of UniProt P35463 (P35463 27-443): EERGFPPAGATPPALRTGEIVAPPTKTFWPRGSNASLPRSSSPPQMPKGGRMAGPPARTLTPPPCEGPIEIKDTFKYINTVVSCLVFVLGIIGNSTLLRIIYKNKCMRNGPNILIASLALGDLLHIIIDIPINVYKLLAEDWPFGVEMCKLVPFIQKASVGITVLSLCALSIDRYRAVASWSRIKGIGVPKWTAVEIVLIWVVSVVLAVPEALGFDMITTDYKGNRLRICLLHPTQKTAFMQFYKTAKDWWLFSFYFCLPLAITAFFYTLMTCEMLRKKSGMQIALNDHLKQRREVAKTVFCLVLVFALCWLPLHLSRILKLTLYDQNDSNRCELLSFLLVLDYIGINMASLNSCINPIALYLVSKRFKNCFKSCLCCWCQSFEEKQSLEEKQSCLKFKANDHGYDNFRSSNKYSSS

Chain of UniProt P26684 (P26684 21-426, chain 1 of 2): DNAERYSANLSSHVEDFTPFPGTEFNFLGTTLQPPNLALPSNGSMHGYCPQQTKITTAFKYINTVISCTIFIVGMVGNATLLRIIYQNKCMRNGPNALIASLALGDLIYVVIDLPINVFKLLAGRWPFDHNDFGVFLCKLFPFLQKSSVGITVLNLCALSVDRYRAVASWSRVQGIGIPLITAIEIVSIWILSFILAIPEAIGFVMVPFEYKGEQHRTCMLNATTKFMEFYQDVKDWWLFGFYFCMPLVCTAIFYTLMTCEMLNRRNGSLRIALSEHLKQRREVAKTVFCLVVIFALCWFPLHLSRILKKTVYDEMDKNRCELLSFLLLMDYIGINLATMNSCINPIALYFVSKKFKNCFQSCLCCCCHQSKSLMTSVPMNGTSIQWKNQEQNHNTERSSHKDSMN
Chain of UniProt P26684 (P21451 27-442, chain 2 of 2, further chain): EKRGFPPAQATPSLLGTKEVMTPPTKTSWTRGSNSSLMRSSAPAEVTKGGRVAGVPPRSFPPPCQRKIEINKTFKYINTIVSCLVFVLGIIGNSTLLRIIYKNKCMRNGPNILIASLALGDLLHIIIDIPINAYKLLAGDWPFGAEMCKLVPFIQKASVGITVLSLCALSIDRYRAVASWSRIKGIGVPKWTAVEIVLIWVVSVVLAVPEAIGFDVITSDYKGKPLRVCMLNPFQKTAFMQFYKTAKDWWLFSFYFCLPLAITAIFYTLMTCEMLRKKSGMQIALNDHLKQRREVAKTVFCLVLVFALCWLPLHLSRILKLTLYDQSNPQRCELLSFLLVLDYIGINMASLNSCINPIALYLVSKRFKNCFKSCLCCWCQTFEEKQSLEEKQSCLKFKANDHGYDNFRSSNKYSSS

Turning to ET-1 (from UniProt P05305), the results for the Kd in series [1] and in series [2] were 0.218 nM and 0.137 nM, respectively.
